Measured values reported in patent US20220289820.

Test system: D11-CD8stk-IL2Rg_A5-Hinge-IL2Rb
Sequence (chain, as listed by the source, chain 1 of 2): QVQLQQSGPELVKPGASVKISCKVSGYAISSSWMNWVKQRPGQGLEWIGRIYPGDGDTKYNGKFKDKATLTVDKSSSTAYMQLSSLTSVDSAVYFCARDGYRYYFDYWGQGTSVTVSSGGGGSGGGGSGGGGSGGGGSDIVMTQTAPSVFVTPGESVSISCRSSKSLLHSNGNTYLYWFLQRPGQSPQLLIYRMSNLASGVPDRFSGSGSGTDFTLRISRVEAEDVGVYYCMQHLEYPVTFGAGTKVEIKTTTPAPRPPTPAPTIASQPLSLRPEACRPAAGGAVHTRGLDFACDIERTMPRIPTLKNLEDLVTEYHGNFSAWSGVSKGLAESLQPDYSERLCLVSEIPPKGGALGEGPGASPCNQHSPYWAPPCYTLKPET
Sequence (chain, as listed by the source, chain 2 of 2): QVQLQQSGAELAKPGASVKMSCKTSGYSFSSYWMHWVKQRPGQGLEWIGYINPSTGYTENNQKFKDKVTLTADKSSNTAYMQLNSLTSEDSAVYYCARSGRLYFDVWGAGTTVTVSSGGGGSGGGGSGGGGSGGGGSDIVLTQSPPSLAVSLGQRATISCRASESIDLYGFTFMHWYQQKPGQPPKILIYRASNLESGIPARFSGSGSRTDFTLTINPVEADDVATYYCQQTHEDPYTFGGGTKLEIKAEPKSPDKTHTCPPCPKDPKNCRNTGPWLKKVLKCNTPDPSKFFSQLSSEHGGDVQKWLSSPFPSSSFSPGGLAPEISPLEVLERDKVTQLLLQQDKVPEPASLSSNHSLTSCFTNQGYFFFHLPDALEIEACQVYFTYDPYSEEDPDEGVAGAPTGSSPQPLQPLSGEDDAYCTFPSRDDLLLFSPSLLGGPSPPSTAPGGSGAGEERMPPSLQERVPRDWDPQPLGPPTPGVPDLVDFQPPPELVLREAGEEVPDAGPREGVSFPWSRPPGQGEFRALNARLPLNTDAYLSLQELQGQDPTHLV

## prostate-specific antigen (PSA)
  phosphorylation of Y694 of STAT5 (phosphoflow): In the cells expressing the PSA CCR, the presence of PSA lead to increasing STAT5 phosphorylation with time
